Where a chain is given by its changes, count along the chain named. Names may count otherwise.
B1: IL-2gm4 (T3A, K49N, A73T), IgG1-Fc tag (Fc fusion)
chain: APASSSTKKTQLQLEHLLLDLQMILNGINNYKNPKLTRMLTFKFYMPKNATELKHLQCLEEELKPLEEVLNLTQSKNFHLRPRDLISNINVIVLELKGSETTFMCEYADETATIVEFLNRWITFAQSIISTLTGGGSGGGSGGGSGGGSEPKSSDKTHTSPPSPAPELEGGSSVFLFPPKPKDTLMISRTPEVTCVVVDVSHEDPEVKFNWYVDGVEVHNAKTKPREEQYASTYRVVSVLTVLHQDWLNGKAYACAVSNKALPAPIEKTISKAKGQPREPQVYTLPPSREEMTKNQVSLTCLVKGFYPSDIAVEWESNGQPENNYKTTPPVLDSDGSFFLYSKLTVDKSRWQQGNVFSCSVMHEALHNHYTQKSLSLSPGK
B2: IL-2gm6 (T3A, M39N, K49N, A73T, D109N), HIS tag (ligand)
chain: APASSSTKKTQLQLEHLLLDLQMILNGINNYKNPKLTRNLTFKFYMPKNATELKHLQCLEEELKPLEEVLNLTQSKNFHLRPRDLISNINVIVLELKGSETTFMCEYANETATIVEFLNRWITFAQSIISTLTHHHHHH
notes: Expressed in Expi293F cells; also called IL-2gm6-His
B3: IL-2gm12 (T3A, A73T, D109N), HIS tag (ligand)
chain: B2 chain with N39M, N49K
notes: Expressed in Expi293F cells; also called IL-2gm12-His
B4: IL-2gm13 (T3A, K49N, A73T, D109N), HIS tag (ligand)
chain: B2 chain with N39M
notes: Expressed in Expi293F cells; also called IL-2gm13-His
B5: IL-2gm2 (T3A, K49N), HIS tag (ligand)
chain: B2 chain with N39M, T73A, N109D
notes: Expressed in Expi293F cells; also called IL-2gm2-His
B6: IL-2gm10 (T3A, M39N, D109N), HIS tag (ligand)
chain: B2 chain with N49K, T73A
notes: Expressed in Expi293F cells; also called IL-2gm10-His
B7: IL-2gm7 (T3A, D109N), HIS tag (ligand)
chain: B2 chain with N39M, N49K, T73A
notes: Expressed in Expi293F cells; also called IL-2gm7-His
B8: IL-2gm4 (T3A, K49N, A73T), HIS tag (ligand)
chain: B2 chain with N39M, N109D
notes: Expressed in Expi293F cells; also called IL-2gm4-His
B9: IL-2gm11 (T3A, K49N, D109N), HIS tag (ligand)
chain: B2 chain with N39M, T73A
notes: Expressed in Expi293F cells; also called IL-2gm11-His
B10: IL-2gm3 (T3A, A73T) or (T3A, A73S), HIS tag (ligand)
chain: B2 chain with N39M, N49K, N109D
notes: also called IL-2gm3-His
B11: IL-2gm5 (T3A, M39N, K49N, A73T), HIS tag (ligand)
chain: B2 chain with N109D
notes: Expressed in Expi293F cells; also called IL-2gm5-His
B12: IL-2gm15 (T3A, M39N, K49N, D109N), HIS tag (ligand)
chain: B2 chain with T73A
notes: Expressed in Expi293F cells; also called IL-2gm15-His
B13: IL-2gm9 (T3A, M39N, A73T), HIS tag (ligand)
chain: B2 chain with N49K, N109D
notes: Expressed in Expi293F cells; also called IL-2gm9-His
B14: IL-2gm8 (T3A, M39N, K49N), HIS tag (ligand)
chain: B2 chain with T73A, N109D
notes: Expressed in Expi293F cells; also called IL-2gm8-His
B15: IL-2gm1 (T3A, M39N), HIS tag (ligand)
chain: B2 chain with N49K, T73A, N109D
notes: Expressed in Expi293F cells with a leader peptide; M39N is meant to make an N-glycosylation site; also called IL-2gm1-His
B16: IL-2gm14 (T3A, M39N, A73T, D109N), HIS tag (ligand)
chain: B2 chain with N49K
notes: Expressed in Expi293F cells; also called IL-2gm14-His

molecular target: CD25 on the surface of NK92 cells (human NK cell line) (human) (UniProt P01589); assay: cell-based or functional assay

EC50 (nM), NK92 cell proliferation [nM]	Potency relative to rhIL-2 (%), NK92 cell proliferation [%]	Binder
0.0152	34.8	B1

molecular target: T1, CD25 on the surface of CTLL-2 cells (mouse cytotoxic T lymphocyte cell line) (mouse) (UniProt P01590); assay: cell-based or functional assay
T1 sequence (looked up): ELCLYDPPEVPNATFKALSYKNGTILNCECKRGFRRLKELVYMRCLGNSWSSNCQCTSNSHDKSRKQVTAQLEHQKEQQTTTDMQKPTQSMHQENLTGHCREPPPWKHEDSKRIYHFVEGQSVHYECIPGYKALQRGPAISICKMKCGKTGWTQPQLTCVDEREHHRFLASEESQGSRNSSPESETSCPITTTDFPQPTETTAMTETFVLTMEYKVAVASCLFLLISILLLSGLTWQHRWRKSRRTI

Binder	EC50 (nM), CTLL-2 cell proliferation [nM]	Potency relative to rhIL-2 (%), CTLL-2 cell proliferation [%]
B1	0.00919	31.5

molecular target: T2, CD25 on the surface of NK92 cells (human NK cell line) (human, UniProt P01589 22-272); assay: cell-based or functional assay
T2 sequence (looked up): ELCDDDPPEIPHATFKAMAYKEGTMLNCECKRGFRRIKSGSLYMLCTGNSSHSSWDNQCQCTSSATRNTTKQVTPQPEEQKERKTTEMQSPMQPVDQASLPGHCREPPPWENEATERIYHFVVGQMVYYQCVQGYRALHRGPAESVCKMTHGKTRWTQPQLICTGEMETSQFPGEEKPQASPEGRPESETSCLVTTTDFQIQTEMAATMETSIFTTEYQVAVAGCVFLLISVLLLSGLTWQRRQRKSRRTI

EC50 (nM), NK92 cell proliferation [nM]	Potency relative to rhIL-2 (%), NK92 cell proliferation [%]	Binder
7.08	0.027	B2
0.296	0.653	B3
0.293	0.661	B4
0.112	1.72	B5
12.7	0.015	B6
0.557	0.347	B7
0.234	0.828	B8
0.28	0.69	B9
2.21	0.088	B10
20.7	0.009	B11
7.76	0.025	B12
1.07	0.181	B13
8.91	0.022	B14
38.5	0.005	B15
23.2	0.008	B16

Molecular target: T3, CD25 protein (from Example 2)
T3 chain: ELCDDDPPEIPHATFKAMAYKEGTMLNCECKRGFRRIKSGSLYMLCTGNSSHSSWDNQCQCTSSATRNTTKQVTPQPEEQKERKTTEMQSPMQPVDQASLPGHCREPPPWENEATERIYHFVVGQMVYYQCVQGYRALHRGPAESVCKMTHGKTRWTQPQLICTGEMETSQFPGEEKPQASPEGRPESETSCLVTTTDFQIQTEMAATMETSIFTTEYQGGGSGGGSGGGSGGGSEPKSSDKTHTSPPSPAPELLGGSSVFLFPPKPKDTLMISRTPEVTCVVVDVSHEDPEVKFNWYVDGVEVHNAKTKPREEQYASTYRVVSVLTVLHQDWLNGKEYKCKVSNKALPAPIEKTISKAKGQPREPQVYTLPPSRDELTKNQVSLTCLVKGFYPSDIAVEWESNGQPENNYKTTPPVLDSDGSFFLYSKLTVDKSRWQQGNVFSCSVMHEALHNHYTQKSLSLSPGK
Assay: ELISA on coated CD25
Method: (§1) CD25 (from Example 2) was coated on a 96-well high adsorption microtiter plate (3590, Costar), washed and blocked. The sample to be tested was diluted to an appropriate concentration and added to wells.

binding result	Binder
no binding (tested: 1 ug/ml)	B2
no binding (tested: 1 ug/ml)	B6
no binding (tested: 1 ug/ml)	B11
no binding (tested: 1 ug/ml)	B12
no binding (tested: 1 ug/ml)	B13
no binding (tested: 1 ug/ml)	B14
no binding (tested: 1 ug/ml)	B15
no binding (tested: 1 ug/ml)	B16

Molecular target: T3, CD25 protein (from Example 2)
Assay: ELISA on coated CD25, sample at 0.2 ug/ml, relative to rhIL-2 = 100%
Method: as §1

Binding activity (%)	Binder
1.08	B2
1.48	B3
1.18	B4
31.3	B5
1.08	B6
2.96	B7
7.5	B8
5.03	B9
5.62	B10
1.08	B11
0.99	B12
1.18	B13
0.99	B14
1.08	B15
0.99	B16

Molecular target: T3, CD25 protein (from Example 2)
Assay: ELISA on coated CD25, sample at 1 ug/ml, relative to rhIL-2 = 100%
Method: as §1

Binding activity (%)	Binder
0.88	B2
2.77	B3
2.23	B4
31	B5
0.88	B6
8.1	B7
14.8	B8
12.5	B9
10.3	B10
0.88	B11
0.68	B12
0.88	B13
0.74	B14
0.88	B15
0.74	B16

Molecular target: T3, CD25 protein (from Example 2)
Assay: ELISA on coated CD25, sample at 0.04 ug/ml, relative to rhIL-2 = 100%
Method: as §1

Binding activity (%)	Binder
1.36	B2
1.97	B3
1.51	B4
16.6	B5
1.51	B6
1.82	B7
3.18	B8
2.42	B9
2.27	B10
1.51	B11
1.36	B12
1.51	B13
1.51	B14
1.66	B15
1.51	B16

molecular target: T4, CD25 on the surface of CTLL-2 cells (mouse cytotoxic T lymphocyte cell line) (mouse, UniProt P01590 22-268); assay: cell-based or functional assay
T4 sequence (looked up): T1 sequence (looked up)

Binder	EC50 (nM), CTLL-2 cell proliferation [nM]	Potency relative to rhIL-2 (%), CTLL-2 cell proliferation [%]
B2	51.5	0.006
B3	0.156	1.86
B4	0.144	2.01
B5	0.0638	4.55
B6	15.6	0.019
B7	0.365	0.794
B8	0.0906	3.2
B9	0.0349	8.31
B10	0.165	1.76
B11	8.22	0.035
B12	16.5	0.018
B13	2.38	0.122
B14	8.84	0.033
B15	83.4	0.003
B16	47.9	0.006

From US20220227829A1 (SHANGHAI GP BIOTECH, published 2022)
